B1: unnamed (parent)
chain 1: MVTHELLVKAAGAVLTGLVGVSAYETLRKALGTAPIRRASVTVMEWGLRGTRRAEAAAESARLTVADVVAEARGRIGEEAPLPAGARVDE
chain 2: MTTVVDAEVQLTVVSDAAGRMRVQATGFQFDAGRAVAIEDTVGKVAGVQAVHAYPRTASIVIWYSRAICDTAAILSAIIDAETVPA

The test covers variants of B1. The settings on record: with partner chain of the complex shown; in M. smegmatis; parent: 100; read off a plot.
With chain 1 MVTHELLVKAAGAVLTGLVGVSAYETLRKALGTAPIRRASVTVMEWGLRGTRRAEAAAASARLTVADVVAAARGRIGEEAPLPAGARVDE, the response was determined as 0.015 % GFP+ cells.
The same measure for chain 1 MVTHELLVKAAGAVLTGLVGVSAYETLRKALGTAPIRRASVTVMEWGLRGTRRAEAAAESARLTVADVVAAARGRIGEEAPLPAGARVDE: 8.5 % GFP+ cells.
The same measure for chain 1 MVTHELLVKAAGAVLTGLVGVSAYETLRKALGTAPIRRASVTVMEWGLRGTRRAEAAAASARLTVADVVAEARGRIGEEAPLPAGARVDE: 0.31 % GFP+ cells.
